Laboratory results from the supplement of paper PMC12042874.
± gives the uncertainty stated by the source.

Assay: amyloid nucleation score (Sup35N fusion, yeast selection) (log enrichment); library NNK1; higher = more nucleation; inactive = no reads after selection
Procedure, shortened: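 Using DiMSum, nucleation scores were taken as the log enrichment of output over input reads, centred on the mode score of non-aggregating sequences. The input and output reads came from Illumina sequencing of plasmid inserts, with sequences under 100 input reads excluded. The yeast were psi-negative, expressed Sup35N fused to peptides of 20 random codons, were induced with 100 μM copper sulfate for 24 hours, and were grown 7 days at 30°C on medium lacking adenine and uracil.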

Row | Substance | amyloid nucleation score
1 | TFKSTLFSYFPGPQEHARGR | 1.93 ± 0.25
2 | TFLMCRNACYK | 4.35 ± 0.15
3 | TFMHARDYDMNS | -0.666 ± 0.86
4 | TFSFARLRDLKWVMPRVRRS | 0.27 ± 0.44
5 | TFSTGFGGIISLACVRRQYL | 0.049 ± 0.88
6 | TFVDGGSFSENVVVMIRFYH | 4.99 ± 0.064
7 | TFYEMPFIFDLCYRWLTVTG | 1.34 ± 0.65
8 | TFYKYVGSTISPSFGFRYVG | -0.052 ± 0.38
9 | TGAYSECFALLIMG | -1.09 ± 1
10 | TGCRHFLQVCSVHRRRGSVC | 0.022 ± 0.78
11 | TGGFIFHGCAFYRMFSWLVD | 0.849 ± 1.1
12 | TGLELGVPKIRCMSFHVLPW | -0.394 ± 0.92
13 | TGLYSYIGFSDGYCVYEMIT | -0.122 ± 1.6
14 | TGNGTCCESFSRSDKENSDA | inactive
15 | TGSHLPRDGSVSKCVFRY | 0.248 ± 0.53
16 | TGSQLWHIIFRC | 0.214 ± 0.24
17 | TGYGSDNCI | inactive
18 | TGYLIYSSWC | 0.146 ± 0.4
19 | TGYWKSFSSAF | 0.072 ± 0.93
20 | THAMCRYQSHGKLLSSGADS | 0.781 ± 0.65
21 | THDLRLMIGHDCDTVNGYSR | -0.725 ± 0.43
22 | THFTTYYYWSQWGLWLSFCQ | 0.596 ± 0.31
23 | THGPFRCLSNCDVFTPNPEE | 1.03 ± 0.62
24 | THSRFKVCPVSMLCNAPQQR | 0.626 ± 1.2
25 | TICNEINQFKAK | 0.35 ± 0.59

Row | Substance | amyloid nucleation score
26 | TIDCMLWGYFRNDSTKCTAA | 0.205 ± 0.47
27 | TIDVCDSHLMAYTVDWNCVW | 0.505 ± 0.62
28 | TIFIAMDFNRVGKLFYRN | 5.368 ± 0.05
29 | TIIPLHIRAIYA | 0.956 ± 0.28
30 | TIMFLVITIPRFHNDLMVLS | -0.79 ± 0.37
31 | TIQPRRWYVYSKQFLWNLCC | 1.35 ± 0.14
32 | TIRVLDRTFVS | inactive
33 | TIRVQHYCVDRGQESVLMGS | -0.524 ± 0.51
34 | TISGNVSCQKYSRLCVQGLS | 0.449 ± 0.25
35 | TISLDRRDAVNYLVAHLCSV | -0.146 ± 1.4
36 | TISYLS | 0.198 ± 0.39
37 | TIVYATGMNMYTDAC | -0.203 ± 0.34
38 | TIWLDCLMDKTYVFDCLFSF | 0.587 ± 1.1
39 | TKDGIT | 0.305 ± 0.97
40 | TKIKYGDKSPKHYYMAS | -0.174 ± 0.6
41 | TKLVLWLVA | -0.429 ± 0.71
42 | TKSMFGTCNMFKTKVLN | -0.101 ± 0.49
43 | TKSRRSEGCEMPCHCNEVFV | 0.497 ± 0.72
44 | TKSTLL | -0.296 ± 0.64
45 | TLCCLT | inactive
46 | TLCCVWSNSFLRVTHDVYKA | 8.518 ± 0.057
47 | TLDADYPCNEQDTVWL | 1.01 ± 1.1
48 | TLFCSGSNAKAGCSEHYYFC | 3.04 ± 0.16
49 | TLFLVWILGVTKSRITGTPS | 0.325 ± 0.73
50 | TLIGSDLVFGSRDPGWGCTI | -0.406 ± 0.45

Row | Substance | amyloid nucleation score
51 | TLKFGSYQAVRLSHSGKPDD | 2.55 ± 0.1
52 | TLLRLFEKPLICYVIGRSLI | -1.09 ± 0.61
53 | TLNHRSLCFSSVDILWVWII | -0.533 ± 0.9
54 | TLSGFYPMYHHLCHECVLKP | 1.13 ± 0.37
55 | TLSTRTIHSCSEYYSGMCVL | 0.089 ± 0.93
56 | TLTCFLIYHTWTR | -1.34 ± 1.4
57 | TLVTEESWMSLLSVNIAQ | -0.378 ± 0.59
58 | TLYHSI | -0.385 ± 0.56
59 | TMGLSLYGV | -0.174 ± 0.51
60 | TMIWFQLRTTLLNYQATVFL | inactive
61 | TMIWLVAPPPLLAMVLY | 0.392 ± 0.6
62 | TMKVGYQGICYTETSGMSFV | inactive
63 | TMLWIVIARNFECEMGFNM | 3.1 ± 0.08
64 | TMSHCVRRCGVMGGVVAFKG | -0.031 ± 0.38
65 | TMTSPVGWETSSFRRMDR | 0.796 ± 0.52
66 | TMVFVCSNYGPSFSLLVC | 2.83 ± 0.24
67 | TMYVALFLFLA | 2.54 ± 0.29
68 | TNDTAPVWHTDLMTDWR | -0.079 ± 0.57
69 | TNFRRSCYVDGVC | inactive
70 | TNGNGFIRRFTRAYFFT | -0.338 ± 0.5
71 | TNISQGRCKVECLPITSIYG | 0.247 ± 0.75
72 | TNISSTGFAIYWLCN | 7.16 ± 0.049
73 | TNITNLSSFVMDDTGWSVNE | inactive
74 | TPANNVRISFIWFL | 3.54 ± 0.064
75 | TPGVKPYYWIRLTEIVATHS | 0.52 ± 1.2

Row | Substance | amyloid nucleation score
76 | TPRCLGERTISGISFYKV | -1.04 ± 0.55
77 | TPSSAFFDAMLNLQQVQSKC | inactive
78 | TPYYPSQKQCRMPRGACVL | -0.435 ± 0.48
79 | TQDEMVSVRNKLSCVTLE | 4.04 ± 0.06
80 | TQEKMSVGYYASNSLFWSML | 0.36 ± 1.2
81 | TQRTAFRGR | 0.203 ± 0.75
82 | TRAAYLGRGREMRCIKVAFW | 1.31 ± 0.93
83 | TRCCLFDRSSIYPSYCNEEA | -0.123 ± 0.9
84 | TRGVGYFIREIFGS | 0.241 ± 1.4
85 | TRHCMRLWECKHEMRTAN | -0.647 ± 1.1
86 | TRHFLSIVLLEL | 1.78 ± 0.28
87 | TRRDNVPQHNLGVTLLMVRE | -1.29 ± 2.7
88 | TRTLLNVHCCPSVW | 6.614 ± 0.054
89 | TRYMICSL | 0.121 ± 0.6
90 | TSACFFFRCCCLRS | 3.76 ± 0.15
91 | TSDFVVPM | 0.691 ± 0.41
92 | TSDNFCQCHCSFFQSWFGG | -0.27 ± 0.63
93 | TSDRVVPFGSISWKGCSRVR | -0.981 ± 0.85
94 | TSENLNSASNLSSYVADMPI | 0.273 ± 0.35
95 | TSFLV | -0.028 ± 0.91
96 | TSGSGINITL | inactive
97 | TSKDEFKFEYRNEKVNQ | 1.75 ± 0.21
98 | TSPDCKAAKSQGSKCRDRSC | -0.495 ± 0.62
99 | TSPYDSNGLFAMLAELHFYS | 0.082 ± 0.78
100 | TSRFSFCGS | 1.85 ± 0.14

Row | Substance | amyloid nucleation score
101 | TSSVEVNPERVITISGTVS | -0.018 ± 0.17
102 | TSVLLQHGLWIGS | 0.685 ± 0.34
103 | TSWRAWVGAVKRSAFFYTYY | 0.444 ± 1.4
104 | TSWVEAPSVSSFGWFLSVHL | 1.91 ± 0.12
105 | TTCCINSLMCTDTNSCIAGV | 2.08 ± 0.6
106 | TTCLTQNLDQGSLLYKVLPR | 1.43 ± 0.18
107 | TTDPVWFSAI | 0.346 ± 0.4
108 | TTDSVDDTRKYAYGFIACGV | 0.114 ± 0.47
109 | TTFGRPSTPH | -0.393 ± 0.38
110 | TTLKGCSIY | 0.934 ± 0.41
111 | TTLVQCQFIPTFCVIPMWLL | 5.58 ± 0.058
112 | TTPEAFNSLFAIRGGLLPQR | -0.415 ± 0.47
113 | TTRHSNQSIM | 0.344 ± 0.4
114 | TTWER | 0.496 ± 1.2
115 | TTYYRFNVDKTFSAVISAEF | -1.02 ± 2.4
116 | TVFIKLKVFAMN | 1.53 ± 0.18
117 | TVFWRYCSRVLNDKFGQFWV | 0.043 ± 0.35
118 | TVGMRYFVWVKGSKTKREER | 0.674 ± 1.2
119 | TVISV | -1.47 ± 0.5
120 | TVRGCRCLAFPWFNG | 0.5 ± 0.48
121 | TVSIPKPILFCEFYFRYADM | -1.67 ± 0.73
122 | TVSMDVLYMIGGCLLCVV | 0.209 ± 0.41
123 | TVVIDSFLCRLQNGVDLGS | inactive
124 | TVVYDWFG | -0.078 ± 0.75
125 | TVWTGQRRMRVSTGCLWSGG | inactive

Row | Substance | amyloid nucleation score
126 | TVWYITTLAGEFAA | 1.09 ± 0.53
127 | TVWYYSHPS | 0.34 ± 0.48
128 | TVYGGLWAFSKTICCVSPKR | 7.228 ± 0.056
129 | TVYMGTLCHYYSGIRLGSIL | 0.458 ± 0.4
130 | TVYSLYVIDALGFLCTNVML | 0.349 ± 0.62
131 | TWAHMQYDVWPDPTAEKDQV | 0.158 ± 0.34
132 | TWARRFYATRVTTCLNQRVL | 0.416 ± 0.81
133 | TWMNASCKSCTYAARFSDQK | 1.51 ± 0.56
134 | TWQSLHGTVTRPRAIVFRLC | 0.027 ± 0.66
135 | TWRCQLIYTCGNVSRKPVLL | -0.148 ± 0.5
136 | TWSLLNIVYMSN | 0.867 ± 0.39
137 | TWSSGRETSCVLFWVQVSKL | -0.101 ± 0.33
138 | TWVVTHPPTM | 0.359 ± 0.55
139 | TYLRPWPFTVLLIWRRYSCL | 0.244 ± 0.81
140 | TYPMATIIVALG | -0.681 ± 0.38
141 | TYPYMCNHFLVLELNVIVAL | 0.363 ± 0.58
142 | TYPYRPLHSPFTNRFLSPNG | -0.926 ± 0.73
143 | TYRCR | 0.624 ± 0.53
144 | VADCPCLGLVNTLAETMNVC | 0.243 ± 0.6
145 | VAFLTKNCYEFDDTVRTCAV | -0.569 ± 0.42
146 | VAGWRPFILLGGPRLNTVRQ | 0.407 ± 0.67
147 | VAKVLKSSCGRYG | -0.573 ± 0.44
148 | VANFET | -0.769 ± 1.1
149 | VANQNHLSCDIMSSARCERH | 0.244 ± 0.65
150 | VAQLFHWADLYNTSYYVSCV | 3.38 ± 0.089

Row | Substance | amyloid nucleation score
151 | VASTTSGRHWSLRGHKRFGR | 1.28 ± 0.72
152 | VATCWRYSGMSARLLSGSLN | 0.516 ± 0.4
153 | VAYSVI | 1.02 ± 0.66
154 | VCITNNELVGVFDDEVFIAF | inactive
155 | VCKFNYL | -0.769 ± 1.1
156 | VCKMSTLVDDWRGSARPHRL | 0.782 ± 0.37
157 | VCLVFVFDVSTVPNICCYAT | -0.189 ± 0.37
158 | VCMLVHLVTFAPNS | 2.61 ± 0.26
159 | VCRPYVRLSPGGM | -1.27 ± 2.7
160 | VCWYWVGILRMMICACTSPS | 0.362 ± 0.43
161 | VDEETMCSFLSLGKVY | 0.474 ± 0.69
162 | VDGMGYDLIMCLYYNGLWAN | 0.515 ± 0.54
163 | VDKKRAISCKSFRLYGRFSL | -0.647 ± 0.32
164 | VDKYIIFIEIYIADSCDTLG | 0.374 ± 0.54
165 | VDLLNGDWNRSLMKAKPVER | 0.17 ± 0.29
166 | VDLTLPASAVGNELCAREVG | 0.155 ± 0.34
167 | VDMNAEKTSSDERLWERRRT | 0.606 ± 0.65
168 | VDRGCKYKQLMREVVSEHVI | 0.753 ± 0.63
169 | VDSSRRDVCDGDT | 0.104 ± 0.48
170 | VEAESFARCDRHVHRQTIGG | 0.369 ± 0.54
171 | VEAMLTEPWRWH | -0.522 ± 1.7
172 | VEFFFDF | -0.417 ± 0.77
